According to US20240360228A1 (BIOLEGEND, published 2024):

What was measured:
human CCR8 [1] = target: T1, human CCR8 (human, UniProt P51685 1-355); assay: flow blocking, PBMC CCR8+CD4+; competitor PE-AB14
T1 construct: Native CCR8 on human PBMC (CCR8+ CD3+ or CCR8+ CD4+ lymphocytes); also called chemokine (C-C motif) receptor 8
Procedure: (§1) For blocking studies, 100 μL of the cell suspension were incubated with 10 μg purified isotype control, AB1, AB2, AB3, AB4, AB5, AB8, AB9, AB10, AB11, AB12, AB13, AB14, AB15, and Commercial ABI antibodies, or isotype control, as blocking agents.
(§2) After incubation with the blocking agent, the cells were incubated with 0.25 μg of the indicated PE-conjugated antibody plus anti-human CD4 APC or anti-human CD3 for another 15 minutes in the dark and then washed 2 times with Cell Staining Buffer, and acquired in a FACSCanto II flow cytometer (BD Biosciences); the data was analyzed using FCS Express (De Novo Software); MFI correspond to the CCR8+ CD4+ lymphocytes or CCR8+ CD3+ lymphocytes.

human CCR8 [2] = target: T1, human CCR8; assay: flow blocking, PBMC CCR8+CD4+; competitor PE-AB6
Procedure: as §1, §2

human CCR8 [3] = target: T1, human CCR8; assay: flow blocking, PBMC CCR8+CD4+; competitor PE-AB11
Procedure: as §1, §2
(§3) Percentage original MFI was calculated by dividing the MFI of samples blocked with AB1, AB2, AB3, AB4, AB5, AB6, AB7, AB8, AB9, AB10, AB11, AB12, AB13, AB14, AB15, and Commercial ABI antibodies, by the MFI of samples blocked with the corresponding isotype control. This value was subtracted from 100 to get a blocking percentage. The formula is shown below: […]

human CCR8 [4] = target: T1, human CCR8; assay: flow blocking, PBMC CCR8+CD4+; competitor PE-AB13
Procedure: as §1, §2

human CCR8 [5] = target: T1, human CCR8; assay: flow blocking, PBMC CCR8+CD4+; competitor PE-AB4
Procedure: as §1, §2, §3

human CCR8 [6] = target: T1, human CCR8; assay: flow blocking, PBMC CCR8+CD4+; competitor PE-AB10
Procedure: as §1, §2, §3

human CCR8 [7] = target: T1, human CCR8; assay: flow blocking, PBMC CCR8+CD4+; competitor PE-AB12
Procedure: as §1, §2, §3

human CCR8 [8] = target: T1, human CCR8; assay: flow blocking, PBMC CCR8+CD4+; competitor PE-AB2
Procedure: as §1, §2, §3

human CCR8 [9] = target: T1, human CCR8; assay: flow blocking, PBMC CCR8+CD4+; competitor PE-AB15
Procedure: as §1, §2, §3

human CCR8 [10] = target: T1, human CCR8; assay: flow blocking, PBMC CCR8+CD4+; competitor PE-433H
Procedure: as §1, §2

human CCR8 [11] = target: T1, human CCR8; assay: flow blocking, PBMC CCR8+CD4+; competitor PE-AB5
Procedure: as §1, §2, §3

human CCR8 [12] = target: T1, human CCR8; assay: flow blocking, PBMC CCR8+CD4+; competitor PE-AB1
Procedure: as §1, §2, §3

human CCR8 [13] = target: T1, human CCR8; assay: flow blocking, PBMC CCR8+CD4+; competitor PE-AB3
Procedure: as §1, §2, §3

T1 sequence (P51685 whole entry): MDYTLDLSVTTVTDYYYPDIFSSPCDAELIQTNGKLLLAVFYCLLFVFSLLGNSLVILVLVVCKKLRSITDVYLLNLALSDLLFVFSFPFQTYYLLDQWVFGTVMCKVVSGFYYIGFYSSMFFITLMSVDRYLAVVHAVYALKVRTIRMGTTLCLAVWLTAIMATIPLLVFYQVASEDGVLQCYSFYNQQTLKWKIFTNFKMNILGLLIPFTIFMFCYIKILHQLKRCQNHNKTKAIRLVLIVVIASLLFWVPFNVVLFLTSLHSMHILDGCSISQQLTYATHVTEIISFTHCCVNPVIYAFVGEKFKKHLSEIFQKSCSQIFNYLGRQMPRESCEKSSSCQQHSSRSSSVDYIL

Binder	% Blocking (human CCR8 [1])	% Positive cells (human CCR8 [1])	% Blocking (human CCR8 [2])	% Positive cells (human CCR8 [2])	% Blocking (human CCR8 [3])	% Positive cells (human CCR8 [3])	% Blocking (human CCR8 [4])	% Positive cells (human CCR8 [4])	% Blocking (human CCR8 [5])	% Positive cells (human CCR8 [5])	% Blocking (human CCR8 [6])	% Positive cells (human CCR8 [6])	% Blocking (human CCR8 [7])	% Positive cells (human CCR8 [7])	% Blocking (human CCR8 [8])	% Positive cells (human CCR8 [8])	% Blocking (human CCR8 [9])	% Positive cells (human CCR8 [9])	% Blocking (human CCR8 [10])	% Positive cells (human CCR8 [10])	other results
AB1 (antibody, V domains shown, Hybridoma monoclonal (mouse or rat); Same VH/VL entries as AB2; also called antibody 1; clone 1) VH: QVQLKESGPGLVKPSETLSLTCTVSGFSLTSYHISWVRQPPGKGLEWMGVIWGDGSKTYNSALKSRLSISRDTSKSQVFLKMRSLKTEDTATYYCARGGDSGFAYWGQGTLVTVSS VL: DIQMTQSPASLSASLEEIVTITCQASQDIGNWLSWYQQKPGKSPQLLIYGTTNLADGVPSRFSGSRSGTQYSLKISRLQVEDIGIYYCLQAYSVPLTFGSGTKLEIK	1.54%	1.28%	86.6%	0.27%	-5.61%	2.07%	10.1%	1.78%	96.1%	0.07%	3.38%	1.43%	-2.78%	1.85%	98.2%	0.03%	-30.2%	1.68%	14.8%	1.5%	% Blocking (human CCR8 [11]): 89.6%; % Positive cells (human CCR8 [11]): 0.21%; % Blocking (human CCR8 [12]): 98.7%; % Positive cells (human CCR8 [12]): 0.02%; % Blocking (human CCR8 [13]): 97.1%; % Positive cells (human CCR8 [13]): 0.05%
AB3 (antibody, V domains shown, Hybridoma monoclonal; also called antibody 3; clone 3) VH: QVQLKESGPGLVKPSETLSLTCTVSGFSLTSYHISWVRQPPGKGLEWMGVIWGDGKTTYNSALKSRLSISRDTSKSQVFLKMNSLKTEDTATYYCARGGDSGFAYWGQGTLVTVSS VL: DIQMTQSPASLSASLEEIVTITCQASQDIGNWLSWYQQKPGKSPQLLIYGTTNLADGVPSRFSGSRSGTQYSLKISRLQVEDIGIYYCLQAYSVPLTFGSGTKLEIK	-12.3%	1.46%	84.7%	0.31%	4.59%	1.87%	21.2%	1.56%	93.3%	0.12%	-9.46%	1.62%	1.67%	1.77%	98.8%	0.02%	-7.75%	1.39%	7.39%	1.63%	% Blocking (human CCR8 [11]): 85.2%; % Positive cells (human CCR8 [11]): 0.3%; % Blocking (human CCR8 [12]): 97.4%; % Positive cells (human CCR8 [12]): 0.04%; % Blocking (human CCR8 [13]): 100%; % Positive cells (human CCR8 [13]): 0%
AB4 (antibody, V domains shown, Hybridoma monoclonal; also called antibody 4; clone 4) VH: QVQLKESGPGLVKPSETLSLTCTVSGFSLTGYHVSWVRQPPGKGLEWMGVIWGDGRTTYNSALKSRLSISRDTSKSQVFLKMSSLKTEDTATYYCARGGDSGFAYWGQGTLVTVSS VL: DIQMTQSPASLSASLEEIVTITCQASQDIGNWLSWYQQKPGKSPQLLIYGATSLADGVPSRFSGSRSGTQFSLKISRLQVEDIGIYYCLQAYIVPLTFGSGTKLESK	-15.4%	1.5%	87.1%	0.26%	4.59%	1.87%	21.7%	1.55%	94.9%	0.09%	0.68%	1.47%	1.11%	1.78%	98.8%	0.02%	-33.3%	1.72%	1.14%	1.74%	% Blocking (human CCR8 [11]): 87.1%; % Positive cells (human CCR8 [11]): 0.26%; % Blocking (human CCR8 [12]): 100%; % Positive cells (human CCR8 [12]): 0%; % Blocking (human CCR8 [13]): 98.2%; % Positive cells (human CCR8 [13]): 0.03%
